Laboratory results from US20230309566A1.
Ends that are not written are not given here.

Target: Sf9 cells expressing receptor A or receptor B
Assay: cell-based or functional assay

EC50 of calcium fluorescence (FLIPR Calcium 6) in Sf9 cells expressing receptor A or receptor B [nM]	Binder
1.4	QPPLPRY-NH2 [QPPLPRY-NH2 (SEQ ID NO: 3)]
12.7	QPPVPRY-NH2 [QPPVPRY-NH2 (SEQ ID NO: 4)]
